The record followed here is US20140112919A1, “INTERLEUKIN-10 ANTIBODIES” (MERCK SHARP & DOHME CORP., published 2014).

The target of this assay is humanized anti-human IL-10 antibody SCH 708980 (12G8) (Homo sapiens). The assay is described as follows: competitive ECLA (IGEN): unlabeled IL-10 titrated against hIL-10-biotin for binding to humanized 12G8-1. On the procedure: 96 well Polypropylene plates (Costar, Cat. No. 3365, Fisher Sci. Cat. No. 07200697); assay buffer of 0.1% BSA, 0.05% tween 20, PBS pH 7.5; paramagnetic beads (Streptavidin-Dynabeads, Igen, Inc., Cat. No. 110029); recombinant human IL-10 dimer (hIL-10-dimer); recombinant human IL-10-monomer (hIL-10-mono); recombinant mouse IL-10 (mIL-10); recombinant cyno IL-10 (cyno IL-10); and recombinant hIL-10Ra (hIL-10Ra): FLAG-tagged protein. Ori-Tag labeled anti-FLAG M2 monoclonal antibodies were prepared using Ori-Tag-NHS ester (Igen, Inc. Cat. No. 110034) according to manufacturer's protocol (OriTag label: IgG challenge ratio 8:1). Anti-Flag M2 monoclonal antibodies were purchased from Sigma (Cat. No. F3165). Ori-Tag labeled anti hIgG 1A2 monoclonal antibodies were prepared as above using rat anti hIgG monoclonal antibodies. Ori-Tag labeled anti rat IgG antibodies were prepared as above from polyclonal Goat anti rat IgG (H+L) antibodies (Jackson Immunoresearch Laboratories, Inc. PA, Cat. No. 112-005-143). Biotinylated recombinant human IL-10
humanized anti-human IL-10 antibody SCH 708980 (12G8) (Homo sapiens), sequence (VH, as listed by the source, chain 1 of 2): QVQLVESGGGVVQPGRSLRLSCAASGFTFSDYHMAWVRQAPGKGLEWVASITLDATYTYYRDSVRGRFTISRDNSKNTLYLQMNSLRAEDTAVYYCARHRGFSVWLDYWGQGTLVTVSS
humanized anti-human IL-10 antibody SCH 708980 (12G8) (Homo sapiens), sequence (VL, as listed by the source, chain 2 of 2): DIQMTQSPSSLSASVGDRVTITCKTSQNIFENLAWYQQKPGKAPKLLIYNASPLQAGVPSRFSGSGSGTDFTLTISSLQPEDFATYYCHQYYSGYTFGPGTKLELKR
1/3 serial dilutions in 50 microliters of the assay buffer were made in 96-well microtiter plate for all unlabeled IL-10 preparations (mIL-10, cyno IL-10, hIL-10 dimer, hIL-10 mono) starting with 3 μg/ml in the first well. […] Percent inhibition of the signal by unlabeled IL-10 preparations was calculated relative to the control samples. […]

B1: recombinant human IL-10-monomer (ligand)
chain: SPGQGTQSENSCTHFPGNLPNMLRDLRDAFSRVKTFFQMKDQLDNLLLKESLLEDFKGYLGCQALSEMIQFYLEEVMPQAENQDPDIKAHVNSLGENLKTLRLRLRRCHRFLPCENKSKAVEQVKNAFNKLQEKGIYKAMSEFDIFINYIEAYMTMKIRN
In turn, B1 came in with an IC50 of 5.8 nM.

Usually IC50 stands for the concentration needed to halve the response being measured. Read a high IC50 as weaker potency in that assay.
